Experimental data as given in IntAct's records for PubMed 25910212.

B1: Chorion-specific transcription factor GCMb (Homo sapiens), O75603 (parent)
chain: MPAAAVQEAVGVCSYGMQLSWDINDPQMPQELALFDQFREWPDGYVRFIYSSDEKKAQRHLSGWAMRNTNNHNGHILKKSCLGVVVCTQACTLPDGSRLQLRPAICDKARLKQQKKACPNCHSALELIPCRGHSGYPVTNFWRLDGNAIFFQAKGVHDHPRPESKSETEARRSAIKRQMASFYQPQKKRIRESEAEENQDSSGHFSNIPPLENPEDFDIVTETSFPIPGQPCPSFPKSDVYKATCDLATFQGDKMPPFQKYSSPRIYLPRPPCSYELANPGYTNSSPYPTLYKDSTSIPNDTDWVHLNTLQCNVNSYSSYERSFDFTNKQHGWKPALGKPSLVERTNHGQFQAMATRPYYNPELPCRYLTTPPPGAPALQTVITTTTKVSYQAYQPPAMKYSDSVREVKSLSSCNYAPEDTGMSVYPEPWGPPVTVTRAASPSGPPPMKIAGDCRAIRPTVAIPHEPVSSRTDEAETWDVCLSGLGSAVSYSDRVGPFFTYNNEDF
partner: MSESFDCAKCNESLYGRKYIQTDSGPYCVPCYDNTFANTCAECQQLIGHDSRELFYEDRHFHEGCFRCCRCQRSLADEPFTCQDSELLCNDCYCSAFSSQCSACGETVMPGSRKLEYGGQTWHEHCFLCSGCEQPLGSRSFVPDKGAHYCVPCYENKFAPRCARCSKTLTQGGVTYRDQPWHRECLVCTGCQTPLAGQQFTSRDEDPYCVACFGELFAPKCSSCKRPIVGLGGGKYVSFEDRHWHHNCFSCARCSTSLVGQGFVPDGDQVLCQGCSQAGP
B2: Vitamin D3 receptor (Homo sapiens), P11473 (parent)
chain: MEAMAASTSLPDPGDFDRNVPRICGVCGDRATGFHFNAMTCEGCKGFFRRSMKRKALFTCPFNGDCRITKDNRRHCQACRLKRCVDIGMMKEFILTDEEVQRKREMILKRKEEEALKDSLRPKLSEEQQRIIAILLDAHHKTYDPTYSDFCQFRPPVRVNDGGGSHPSRPNSRHTPSFSGDSSSSCSDHCITSSDMMDSSSFSNLDLSEEDSDDPSVTLELSQLSMLPHLADLVSYSIQKVIGFAKMIPGFRDLTSEDQIVLLKSSAIEVIMLRSNESFTMDDMSWTCGNQDYKYRVSDVTKAGHSLELIEPLIKFQVGLKKLNLHEEEHVLLMAICIVSPDRPGVQDAALIEAIQDRLSNTLQTYIRCRHPPPGSHLLYAKMIQKLADLRSLNEEHSKQYRCLSFQPECSMKLTPLVLEVFGNEIS
partner: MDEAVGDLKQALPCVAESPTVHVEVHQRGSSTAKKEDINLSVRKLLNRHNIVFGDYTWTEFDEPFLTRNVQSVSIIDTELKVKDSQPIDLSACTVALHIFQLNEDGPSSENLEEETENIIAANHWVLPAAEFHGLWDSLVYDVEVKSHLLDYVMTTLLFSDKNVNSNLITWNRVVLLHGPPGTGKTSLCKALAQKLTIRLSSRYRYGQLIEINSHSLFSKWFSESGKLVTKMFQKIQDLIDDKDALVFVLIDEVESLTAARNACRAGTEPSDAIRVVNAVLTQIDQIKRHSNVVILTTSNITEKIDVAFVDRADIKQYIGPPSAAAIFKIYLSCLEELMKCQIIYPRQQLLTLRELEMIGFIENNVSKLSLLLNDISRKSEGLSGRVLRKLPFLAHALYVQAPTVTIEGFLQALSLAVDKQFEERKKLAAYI
B3: Mothers against decapentaplegic homolog 3 (Homo sapiens), P84022 (parent)
chain: MSSILPFTPPIVKRLLGWKKGEQNGQEEKWCEKAVKSLVKKLKKTGQLDELEKAITTQNVNTKCITIPRSLDGRLQVSHRKGLPHVIYCRLWRWPDLHSHHELRAMELCEFAFNMKKDEVCVNPYHYQRVETPVLPPVLVPRHTEIPAEFPPLDDYSHSIPENTNFPAGIEPQSNIPETPPPGYLSEDGETSDHQMNHSMDAGSPNLSPNPMSPAHNNLDLQPVTYCEPAFWCSISYYELNQRVGETFHASQPSMTVDGFTDPSNSERFCLGLLSNVNRNAAVELTRRHIGRGVRLYYIGGEVFAECLSDSAIFVQSPNCNQRYGWHPATVCKIPPGCNLKIFNNQEFAALLAQSVNQGFEAVYQLTRMCTIRMSFVKGWGAEYRRQTVTSTPCWIELHLNGPLQWLDKVLTQMGSPSIRCSSVS
partner: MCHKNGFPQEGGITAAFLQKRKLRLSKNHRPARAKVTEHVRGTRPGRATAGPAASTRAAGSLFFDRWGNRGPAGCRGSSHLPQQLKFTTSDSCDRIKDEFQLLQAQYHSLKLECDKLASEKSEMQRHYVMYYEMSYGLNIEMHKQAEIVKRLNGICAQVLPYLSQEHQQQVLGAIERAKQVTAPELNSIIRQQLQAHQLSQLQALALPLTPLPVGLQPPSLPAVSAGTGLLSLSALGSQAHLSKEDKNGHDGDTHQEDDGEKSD
B4: Interferon-inducible double-stranded RNA-dependent protein kinase activator A (Homo sapiens), O75569 (parent)
chain: MSQSRHRAEAPPLEREDSGTFSLGKMITAKPGKTPIQVLHEYGMKTKNIPVYECERSDVQIHVPTFTFRVTVGDITCTGEGTSKKLAKHRAAEAAINILKANASICFAVPDPLMPDPSKQPKNQLNPIGSLQELAIHHGWRLPEYTLSQEGGPAHKREYTTICRLESFMETGKGASKKQAKRNAAEKFLAKFSNISPENHISLTNVVGHSLGCTWHSLRNSPGEKINLLKRSLLSIPNTDYIQLLSEIAKEQGFNITYLDIDELSANGQYQCLAELSTSPITVCHGSGISCGNAQSDAAHNALQYLKIIAERK
partner: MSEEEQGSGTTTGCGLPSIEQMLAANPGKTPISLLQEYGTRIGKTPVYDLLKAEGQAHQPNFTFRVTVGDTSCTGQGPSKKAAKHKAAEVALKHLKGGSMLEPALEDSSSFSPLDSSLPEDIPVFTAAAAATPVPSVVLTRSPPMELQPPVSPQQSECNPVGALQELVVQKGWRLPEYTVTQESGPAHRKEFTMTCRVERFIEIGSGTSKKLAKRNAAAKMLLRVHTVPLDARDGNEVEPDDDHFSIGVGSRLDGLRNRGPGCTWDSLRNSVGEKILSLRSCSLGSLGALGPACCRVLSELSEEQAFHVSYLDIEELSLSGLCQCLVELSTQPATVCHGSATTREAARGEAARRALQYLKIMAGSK
B5: Keratin, type II cytoskeletal 6A (Homo sapiens), P02538 (parent)
chain: MASTSTTIRSHSSSRRGFSANSARLPGVSRSGFSSVSVSRSRGSGGLGGACGGAGFGSRSLYGLGGSKRISIGGGSCAISGGYGSRAGGSYGFGGAGSGFGFGGGAGIGFGLGGGAGLAGGFGGPGFPVCPPGGIQEVTVNQSLLTPLNLQIDPTIQRVRAEEREQIKTLNNKFASFIDKVRFLEQQNKVLETKWTLLQEQGTKTVRQNLEPLFEQYINNLRRQLDSIVGERGRLDSELRGMQDLVEDFKNKYEDEINKRTAAENEFVTLKKDVDAAYMNKVELQAKADTLTDEINFLRALYDAELSQMQTHISDTSVVLSMDNNRNLDLDSIIAEVKAQYEEIAQRSRAEAESWYQTKYEELQVTAGRHGDDLRNTKQEIAEINRMIQRLRSEIDHVKKQCANLQAAIADAEQRGEMALKDAKNKLEGLEDALQKAKQDLARLLKEYQELMNVKLALDVEIATYRKLLEGEECRLNGEGVGQVNISVVQSTVSSGYGGASGVGSGLGLGGGSSYSYGSGLGVGGGFSSSSGRAIGGGLSSVGGGSSTIKYTTTSSSSRKSYKH
partner: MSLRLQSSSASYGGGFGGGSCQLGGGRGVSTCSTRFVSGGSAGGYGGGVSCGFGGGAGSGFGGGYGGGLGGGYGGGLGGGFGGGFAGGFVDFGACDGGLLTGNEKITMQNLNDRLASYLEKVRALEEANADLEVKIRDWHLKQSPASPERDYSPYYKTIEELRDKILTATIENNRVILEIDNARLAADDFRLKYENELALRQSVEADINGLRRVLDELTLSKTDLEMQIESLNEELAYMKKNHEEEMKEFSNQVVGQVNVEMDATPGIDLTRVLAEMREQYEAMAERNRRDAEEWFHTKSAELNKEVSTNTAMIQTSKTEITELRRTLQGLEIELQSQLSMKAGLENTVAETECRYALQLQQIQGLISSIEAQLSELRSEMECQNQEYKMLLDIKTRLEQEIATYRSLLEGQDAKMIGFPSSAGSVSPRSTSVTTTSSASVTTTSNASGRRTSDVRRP

Variants of: B1
Conditions: with fhl3_human FHL3, Q13643

Row | effect of a mutation on the interaction | Variant
1 | with no effect | G203S

Variants of: B2
Conditions: with pch2_human TRIP13, Q15645

Row | effect of a mutation on the interaction | Variant
2 | with no effect | I268T
3 | with no effect | C190W
4 | with no effect | G33D
5 | disrupting interaction strength | E329K

Variants of: B3
Conditions: with TLE5, Q08117-2

Row | effect of a mutation on the interaction | Variant
6 | with no effect | N197I
7 | with no effect | I170V

Variants of: B4
Conditions: with trbp2_human TARBP2, Q15633

Row | effect of a mutation on the interaction | Variant
8 | with no effect | P222L

Variants of: B5
Conditions: with KRT13, P13646

Row | effect of a mutation on the interaction | Variant
9 | with no effect | N171K
10 | with no effect | V523F
